{
  "source": "paper PMC7039449",
  "about": "“FMN-dependent oligomerization of putative lactate oxidase from Pediococcus acidilactici” (PLoS ONE, 2020)",
  "key": {"PaLCTO": {"target": "T1, PaLCTO (Pediococcus acidilactici, UniProt E0NE46)", "T1 construct": "gene lctO; recombinant in E. coli, pNH-TrxT, N-terminal thioredoxin/His tag cut with TEV; 39 kDa monomer, FMN-containing homotetramer (158 kDa)", "T1 sequence (E0NE46 1-369)": "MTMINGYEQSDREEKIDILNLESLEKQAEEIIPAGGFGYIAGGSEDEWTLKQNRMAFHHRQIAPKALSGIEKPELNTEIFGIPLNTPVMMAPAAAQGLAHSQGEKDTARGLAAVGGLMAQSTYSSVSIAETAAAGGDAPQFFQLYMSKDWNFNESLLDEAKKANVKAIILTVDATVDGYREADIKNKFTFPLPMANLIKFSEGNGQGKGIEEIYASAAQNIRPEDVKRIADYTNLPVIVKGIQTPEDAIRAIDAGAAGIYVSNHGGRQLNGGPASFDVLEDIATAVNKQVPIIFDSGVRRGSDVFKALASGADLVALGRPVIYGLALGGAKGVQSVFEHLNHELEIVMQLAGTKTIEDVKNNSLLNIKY", "experiment": "X-ray crystallography, […] Å (refolded with FMN: 6RHS, […] Å); SEC", "type": "binding", "details": "FMN in active site; FMN addition turns apo monomer into tetramer"}, "purified protein": {"substrate": "C[C@H](O)C(=O)O", "experiment": "purified protein", "details": "pH 6.5 (DMGA buffer), 37 °C, FMN added, air, L-lactate 0.2-2.0 mM, in-house recombinant enzyme"}, "[1]": {"target": "the molecule itself", "experiment": "SEC; recombinant AvLCTO, data not shown"}, "[2]": {"target": "the molecule itself", "experiment": "SEC; analytical SEC of the yellow, FMN-containing fraction; Superdex 200 Increase 10/300 calibrated with Bio-Rad standards; 30 mM Hepes pH 7.5, 350 mM NaCl, 0.5 mM TCEP"}},
  "data": [
    {"molecule": "Cc1cc2nc3c(=O)[nH]c(=O)nc-3n(C[C@H](O)[C@H](O)[C@H](O)COP(=O)(O)O)c2cc1C", "note": "[FMN]", "values": [
      {"measurement": "X-ray crystallography, 1.9 Å (refolded with FMN: 6RHS, 2.6 Å); SEC", "setting": "PaLCTO", "result": "The hydrogen bonding network between FMN and the surrounding residues contains in total twelve interactions"}
    ]},
    {"molecule": "Aerococcus viridans lactate oxidase (enzyme, L-lactate oxidase of Aerococcus viridans, cloned from genomic DNA of strain DSM 20340; also called AvLCTO; recombinant AvLCTO; source: E. coli BL21 (DE3), purified) MNNNDIEYNAPSEIKYIDVVNTYDLEEEASKVVPHGGFNYIAGASGDEWTKRANDRAWKHKLLYPRLAQDVEAPDTSTEILGHKIKAPFIMAPIAAHGLAHTTKEAGTARAVSEFGTIMSISAYSGATFEEISEGLNGGPRWFQIYMAKDDQQNRDILDEAKSDGATAIILTADSTVSGNRDRDVKNKFVYPFGMPIVQRYLRGTAEGMSLNNIYGASKQKISPRDIEEIAGHSGLPVFVKGIQHPEDADMAIKRGASGIWVSNHGARQLYEAPGSFDTLPAIAERVNKRVPIVFDSGVRRGEHVAKALASGADVVALGRPVLFGLALGGWQGAYSVLDYFQKDLTRVMQLTGSQNVEDLKGLDLFDNPYGYEY", "values": [
      {"measurement": "Km", "setting": "purified protein", "result": "520 ± 50", "unit": "µM"},
      {"measurement": "stoichiometry N", "setting": "[1]", "result": 4}
    ]},
    {"molecule": "Pediococcus acidilactici lactate oxidase (enzyme, putative L-lactate oxidase of Pediococcus acidilactici DSM 20284, Uniprot E0NE46; gene cloned from genomic DNA into pNH-TrxT; theoretical monomer mass 39 kDa; The same polypeptide without FMN (colourless fraction, or deflavinated) is a monomer that lacks secondary structure by CD; also called PaLCTO; WT PaLCTO; source: E. coli BL21 (DE3), purified (Ni-NTA, TEV cleavage, second Ni-NTA, SEC); not …) MTMINGYEQSDREEKIDILNLESLEKQAEEIIPAGGFGYIAGGSEDEWTLKQNRMAFHHRQIAPKALSGIEKPELNTEIFGIPLNTPVMMAPAAAQGLAHSQGEKDTARGLAAVGGLMAQSTYSSVSIAETAAAGGDAPQFFQLYMSKDWNFNESLLDEAKKANVKAIILTVDATVDGYREADIKNKFTFPLPMANLIKFSEGNGQGKGIEEIYASAAQNIRPEDVKRIADYTNLPVIVKGIQTPEDAIRAIDAGAAGIYVSNHGGRQLNGGPASFDVLEDIATAVNKQVPIIFDSGVRRGSDVFKALASGADLVALGRPVIYGLALGGAKGVQSVFEHLNHELEIVMQLAGTKTIEDVKNNSLLNIKY", "values": [
      {"measurement": "stoichiometry N", "setting": "[2]", "result": 4}
    ]}
  ]
}
